According to article PMC11360561:

Legend:
[1] = molecular target: Human bufavirus 1 (BuV1) VP2, assembled as virus-like particles (human bufavirus 1); experiment: cryo-EM structure; purified BuV1 VP2 VLPs dialyzed to pH 2.6 in 50 mM glycine HCl, 150 mM NaCl; icosahedral reconstruction; full and half (broken) capsids seen in micrographs
[2] = molecular target: Human bufavirus 1 (BuV1) VP2, assembled as virus-like particles (human bufavirus 1); experiment: cryo-EM structure; purified BuV1 VP2 VLPs co-incubated with 6SLN (or 3SLN) glycan in 10-fold molar excess of the potential binding sites; icosahedral reconstruction, 60-mer model
[3] = molecular target: Human bufavirus 1 (BuV1) VP2, assembled as virus-like particles (human bufavirus 1); experiment: cryo-EM structure; purified BuV1 VP2 VLPs dialyzed to pH 7.4 in universal buffer (20 mM HEPES, 20 mM MES, 20 mM sodium acetate, 150 mM NaCl); icosahedral reconstruction
[4] = molecular target: Human bufavirus 1 (BuV1) VP2, assembled as virus-like particles (human bufavirus 1); experiment: cryo-EM structure; purified BuV1 VP2 VLPs dialyzed to pH 4.0 in universal buffer (20 mM HEPES, 20 mM MES, 20 mM sodium acetate, 150 mM NaCl); icosahedral reconstruction

Measured: stoichiometry N

Human bufavirus 1 (BuV1) VP2, assembled as virus-like particles (natural protein)
60: all assays above
